We go through 1 substance from paper PMC9400494.

Common to all, as to assay: fluorescence polarization
Background: Polarisation of emitted light reports the rotation of a fluorescent probe.

Data set [1] concerns nsp12 RdRP (SARS-CoV-2 (Wuhan-1 strain)).
For data set [2], the system named is nsp7 (SARS-CoV-2 (Wuhan-1 strain)).
In data set [3] the test system is nsp8 (SARS-CoV-2 (Wuhan-1 strain)).
The subject of data set [4] is nsp8L7 (nsp8-GSGSGS-nsp7 fusion) (SARS-CoV-2 (Wuhan-1 strain)).

As to FP primer-template RNA hairpin, the Kd (usually the free concentration of one partner at which half of the binding sites on the other are occupied at equilibrium, for simple one-to-one binding) in data set [1] turned out to be 200 nM; in data set [2], 7000 nM; in data set [3], 200 nM; in data set [4] it was 200 nM.
